The source of these data is article PMC9302186, “Defining variant-resistant epitopes targeted by SARS-CoV-2 antibodies: A global consortium study” (Science (New York, N.y.), 2021).

This assay addresses T1, SARS-CoV-2 spike receptor binding domain, monomeric (SARS-CoV-2, UniProt P0DTC2).
T1 construct: also called RBD; monomeric RBD
The assay is described as follows: SPR. Conditions: both partners purified.

B1: CoVIC-259 (antibody, V domains shown)
VH: EVQLVESGGGVVQPGRSLRLSCAASGFTFSSYAMHWVRQAPGKGLEWVAVLSYDGSNKYNADSVKGRFTISRDNSKNTLYLQMNSLRVEDTAMYYCARDGVSVTMVRGVIGPLCDYWGQGTLVTVSS
VL: not shown
notes: also called RBD-1 community representative
B1: the binding result was “binds”.
